Data reported in PMC7851051.
Read-outs that look alike come from different tables or passages of the source.

Legend:
[1] = target: LLO118int single-chain TCR (scTCR), displayed on yeast (mouse); assay: flow cytometry on cells
[2] = target: LLO118int single-chain TCR (scTCR), displayed on yeast (mouse); assay: flow cytometry on cells; remark: listed apart in the source
[3] = target: LLO118low single-chain TCR (scTCR), displayed on yeast (mouse); assay: flow cytometry on cells
[4] = target: LLO56low single-chain TCR (scTCR), displayed on yeast (mouse); assay: flow cytometry on cells
[5] = target: LLO118_(high) single-chain TCR (scTCR), displayed on yeast (mouse); assay: flow cytometry on cells; scTCR displayed on yeast stained with LLO_(190-201)/I-A^b tetramer; histograms (Figure 1C)
[6] = target: LLO56int single-chain TCR (scTCR), displayed on yeast (mouse); assay: as above
[7] = target: LLO56int single-chain TCR (scTCR), displayed on yeast (mouse); assay: flow cytometry on cells; tetramer decay on yeast-displayed scTCR as above, second round with lower levels of MHC inhibiting-antibody (Figure 2D); multivalent half-life
[8] = target: LLO118_(high) single-chain TCR (scTCR), displayed on yeast (mouse); assay: flow cytometry on cells; tetramer decay on yeast-displayed scTCR: 6.5 µg/ml tetramer, 1.5 h, room temperature, washed, then anti-mouse MHC class II (M5/114.15.2) added and tetramer followed for 2-60 min; first round (Figure 2C); multivalent half-life
[9] = target: LLO56int single-chain TCR (scTCR), displayed on yeast (mouse); assay: as above
[10] = target: LLO118_(high) single-chain TCR (scTCR), displayed on yeast (mouse); assay: flow cytometry on cells; tetramer titration on yeast-displayed scTCR: 1x10^6 induced cells, 0.152 nM to 12.16 nM tetramer, 1.5 h, room temperature; MFI normalised; KD = 50% maximum binding concentration, one site-specific fit; multivalent avidity; percent of cells bound (Figure 2B)
[11] = target: LLO56int single-chain TCR (scTCR), displayed on yeast (mouse); assay: as above

LLO_(190-201)/I-A^b tetramer (peptide-MHC)
other [1]: 6.7 min
Kd [2]: 44.8 nM
other [2]: 24.5%
other [3]: 1.1%
other [4]: 0.75%
log better tetramer binding than LLO118int [5]: 1 log
log better tetramer binding than LLO118low [5]: 2.5 log
log better tetramer binding than LLO56low [6]: 1.5 log
t1/2 [7]: 3.5 min
t1/2 [8]: 165 m
t1/2 [9]: 1 m
Kd [10]: 7.33 nM
percent of cells bound by tetramer [10]: 43.3%
Kd [11]: 39.2 nM
percent of cells bound by tetramer [11]: 12.6%
